Assay: RP-HPLC insulin apparent solubility / percent recovery (content)
Conditions: 7 days at 2-8° C.
Summary of the method: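 Vial samples withdrawn at each time point, centrifuged, held at 4 °C, run in duplicate by RP-HPLC. Apparent solubility = combined insulin main and desamido peak areas as percent versus standards/initial formulation; purity = main insulin peak as percent of all insulin species.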

Aspart: AspB28 human insulin analog
Solubility of Insulin Aspart (0.2% methylparaben + […] m-cresol, pH 6.6, NaCl 50 mM): 57.7%
Solubility of Insulin Aspart (0.2% methylparaben + […] m-cresol, pH 6.6, NaCl 80 mM): 32.1%
Solubility of Insulin Aspart (0.2% methylparaben + […] m-cresol, pH 6.6, NaCl 110 mM): 21.1%
Solubility of Insulin Aspart (0.2% methylparaben + […] m-cresol, pH 6.6, NaCl 140 mM): 14.7%
Solubility of Insulin Aspart (0.2% methylparaben + […] m-cresol, pH 6.8, NaCl 50 mM): 97.2%
Solubility of Insulin Aspart (0.2% methylparaben + […] m-cresol, pH 6.8, NaCl 80 mM): 84.1%
Solubility of Insulin Aspart (0.2% methylparaben + […] m-cresol, pH 6.8, NaCl 110 mM): 54.2%
Solubility of Insulin Aspart (0.2% methylparaben + […] m-cresol, pH 6.8, NaCl 140 mM): 32.2%
Solubility of Insulin Aspart (0.2% methylparaben + […] m-cresol, pH 7.0, NaCl 50 mM): 98.7%
Solubility of Insulin Aspart (0.2% methylparaben + […] m-cresol, pH 7.0, NaCl 80 mM): 100.2%
Solubility of Insulin Aspart (0.2% methylparaben + […] m-cresol, pH 7.0, NaCl 110 mM): 96.3%
Solubility of Insulin Aspart (0.2% methylparaben + […] m-cresol, pH 7.0, NaCl 140 mM): 67.9%
Solubility of Insulin Aspart (0.2% methylparaben + […] m-cresol, pH 7.2, NaCl 50 mM): 99.0%
Solubility of Insulin Aspart (0.2% methylparaben + […] m-cresol, pH 7.2, NaCl 80 mM): 100.2%
Solubility of Insulin Aspart (0.2% methylparaben + […] m-cresol, pH 7.2, NaCl 110 mM): 99.5%
Solubility of Insulin Aspart (0.2% methylparaben + […] m-cresol, pH 7.2, NaCl 140 mM): 101.6%
Solubility of Insulin Aspart (0.2% methylparaben + […] m-cresol, pH 7.4, NaCl 50 mM): 99.1%
Solubility of Insulin Aspart (0.2% methylparaben + […] m-cresol, pH 7.4, NaCl 80 mM): 100.5%
Solubility of Insulin Aspart (0.2% methylparaben + […] m-cresol, pH 7.4, NaCl 110 mM): 99.6%
Solubility of Insulin Aspart (0.2% methylparaben + […] m-cresol, pH 7.4, NaCl 140 mM): 99.6%
Solubility of Insulin Aspart (0.2% methylparaben + […] m-cresol, pH 7.6, NaCl 50 mM): 99.3%
Solubility of Insulin Aspart (0.2% methylparaben + […] m-cresol, pH 7.6, NaCl 80 mM): 100.6%
Solubility of Insulin Aspart (0.2% methylparaben + […] m-cresol, pH 7.6, NaCl 110 mM): 99.8%
Solubility of Insulin Aspart (0.2% methylparaben + […] m-cresol, pH 7.6, NaCl 140 mM): 99.8%
Solubility of Insulin Aspart (0.2% phenol + […] m-cresol, pH 6.6, NaCl 50 mM): 91.8%
Solubility of Insulin Aspart (0.2% phenol + […] m-cresol, pH 6.6, NaCl 80 mM): 59.2%
Solubility of Insulin Aspart (0.2% phenol + […] m-cresol, pH 6.6, NaCl 110 mM): 58.0%
Solubility of Insulin Aspart (0.2% phenol + […] m-cresol, pH 6.6, NaCl 140 mM): 39.3%
Solubility of Insulin Aspart (0.2% phenol + […] m-cresol, pH 6.8, NaCl 50 mM): 98.8%
Solubility of Insulin Aspart (0.2% phenol + […] m-cresol, pH 6.8, NaCl 80 mM): 91.8%
Solubility of Insulin Aspart (0.2% phenol + […] m-cresol, pH 6.8, NaCl 110 mM): 72.8%
Solubility of Insulin Aspart (0.2% phenol + […] m-cresol, pH 6.8, NaCl 140 mM): 50.9%
Solubility of Insulin Aspart (0.2% phenol + […] m-cresol, pH 7.0, NaCl 50 mM): 99.1%
Solubility of Insulin Aspart (0.2% phenol + […] m-cresol, pH 7.0, NaCl 80 mM): 100.6%
Solubility of Insulin Aspart (0.2% phenol + […] m-cresol, pH 7.0, NaCl 110 mM): 99.9%
Solubility of Insulin Aspart (0.2% phenol + […] m-cresol, pH 7.0, NaCl 140 mM): 88.9%
Solubility of Insulin Aspart (0.2% phenol + […] m-cresol, pH 7.2, NaCl 50 mM): 99.1%
Solubility of Insulin Aspart (0.2% phenol + […] m-cresol, pH 7.2, NaCl 80 mM): 100.5%
Solubility of Insulin Aspart (0.2% phenol + […] m-cresol, pH 7.2, NaCl 110 mM): 100.0%
Solubility of Insulin Aspart (0.2% phenol + […] m-cresol, pH 7.2, NaCl 140 mM): 99.7%
Solubility of Insulin Aspart (0.2% phenol + […] m-cresol, pH 7.4, NaCl 50 mM): 99.2%
Solubility of Insulin Aspart (0.2% phenol + […] m-cresol, pH 7.4, NaCl 80 mM): 100.6%
Solubility of Insulin Aspart (0.2% phenol + […] m-cresol, pH 7.4, NaCl 110 mM): 100.0%
Solubility of Insulin Aspart (0.2% phenol + […] m-cresol, pH 7.4, NaCl 140 mM): 99.7%
Solubility of Insulin Aspart (0.2% phenol + […] m-cresol, pH 7.6, NaCl 50 mM): 99.2%
Solubility of Insulin Aspart (0.2% phenol + […] m-cresol, pH 7.6, NaCl 80 mM): 100.8%
Solubility of Insulin Aspart (0.2% phenol + […] m-cresol, pH 7.6, NaCl 110 mM): 100.2%
Solubility of Insulin Aspart (0.2% phenol + […] m-cresol, pH 7.6, NaCl 140 mM): 99.8%
Solubility of Insulin Aspart ([…] phenol + […] m-cresol, pH 6.6, NaCl 50 mM): 97.9%
Solubility of Insulin Aspart ([…] phenol + […] m-cresol, pH 6.6, NaCl 80 mM): 86.3%
Solubility of Insulin Aspart ([…] phenol + […] m-cresol, pH 6.6, NaCl 110 mM): 54.4%
Solubility of Insulin Aspart ([…] phenol + […] m-cresol, pH 6.6, NaCl 140 mM): 38.3%
Solubility of Insulin Aspart ([…] phenol + […] m-cresol, pH 6.8, NaCl 50 mM): 99.8%
Solubility of Insulin Aspart ([…] phenol + […] m-cresol, pH 6.8, NaCl 80 mM): 97.9%
Solubility of Insulin Aspart ([…] phenol + […] m-cresol, pH 6.8, NaCl 110 mM): 97.5%
Solubility of Insulin Aspart ([…] phenol + […] m-cresol, pH 6.8, NaCl 140 mM): 60.5%
Solubility of Insulin Aspart ([…] phenol + […] m-cresol, pH 7.0, NaCl 50 mM): 99.7%
Solubility of Insulin Aspart ([…] phenol + […] m-cresol, pH 7.0, NaCl 80 mM): 99.3%
Solubility of Insulin Aspart ([…] phenol + […] m-cresol, pH 7.0, NaCl 110 mM): 99.3%
Solubility of Insulin Aspart ([…] phenol + […] m-cresol, pH 7.0, NaCl 140 mM): 100.2%
Solubility of Insulin Aspart ([…] phenol + […] m-cresol, pH 7.2, NaCl 50 mM): 99.1%
Solubility of Insulin Aspart ([…] phenol + […] m-cresol, pH 7.2, NaCl 80 mM): 99.2%
Solubility of Insulin Aspart ([…] phenol + […] m-cresol, pH 7.2, NaCl 110 mM): 99.2%
Solubility of Insulin Aspart ([…] phenol + […] m-cresol, pH 7.2, NaCl 140 mM): 101.1%
Solubility of Insulin Aspart ([…] phenol + […] m-cresol, pH 7.4, NaCl 50 mM): 100.0%
Solubility of Insulin Aspart ([…] phenol + […] m-cresol, pH 7.4, NaCl 80 mM): 99.6%
Solubility of Insulin Aspart ([…] phenol + […] m-cresol, pH 7.4, NaCl 110 mM): 99.5%
Solubility of Insulin Aspart ([…] phenol + […] m-cresol, pH 7.4, NaCl 140 mM): 101.1%
Solubility of Insulin Aspart ([…] phenol + […] m-cresol, pH 7.6, NaCl 50 mM): 100.1%
Solubility of Insulin Aspart ([…] phenol + […] m-cresol, pH 7.6, NaCl 80 mM): 99.7%
Solubility of Insulin Aspart ([…] phenol + […] m-cresol, pH 7.6, NaCl 110 mM): 99.4%
Solubility of Insulin Aspart ([…] phenol + […] m-cresol, pH 7.6, NaCl 140 mM): 101.1%

Reference: patent US9993529B2, “Stable formulations of a hyaluronan-degrading enzyme” (Halozyme, Inc., priority 2011, dated 2018)
